Among the data in article PMC12421828 are response (Elution / Input) values, retold here.

The target in this assay is FLAG-14-3-3ε (pCAGG-FLAG 14-3-3ε of Figure 5, isoform not told). Nature of the assay: co-immunoprecipitation (anti-FLAG IP), immunoblot band quantification. As to conditions: BSR cells co-transfected; immunoprecipitation at 24 h post-transfection; parent: est. 0.76; read off a plot.
As for HA2B* expressed from pCAGG-HA2B* S17A, the response (Elution / Input) was determined as 1.5.
To HA2B* expressed from pCAGG-HA2B* S17D belongs 1.4; to HA2B* expressed from pCAGG-HA2B* S17E, 1.7.
Turning to HA2B* expressed from pCAGG-HA2B* S19A, the response (Elution / Input) was determined as 1.1.
With HA2B* expressed from pCAGG-HA2B* S19D, the response (Elution / Input) came out at 1.9.
For HA2B* expressed from pCAGG-HA2B* S19E, the response (Elution / Input) was found to be 0.76.
